# Measured values reported in article PMC3713010, “Sox2 Transcriptionally Regulates Pqbp1, an Intellectual Disability-Microcephaly Causative Gene, in Neural Stem Progenitor Cells”.
# T1: Brn2 DNA-binding domain (BD-Brn2) (Mus musculus (B6), UniProt P31360 336-435)
# T1 sequence: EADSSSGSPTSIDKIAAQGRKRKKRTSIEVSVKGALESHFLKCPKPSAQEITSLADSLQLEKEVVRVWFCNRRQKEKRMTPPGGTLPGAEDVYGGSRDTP
# T2: Oct6 DNA-binding domain (BD-Oct6) (Mus musculus (B6), UniProt P21952 317-416)
# T2 sequence: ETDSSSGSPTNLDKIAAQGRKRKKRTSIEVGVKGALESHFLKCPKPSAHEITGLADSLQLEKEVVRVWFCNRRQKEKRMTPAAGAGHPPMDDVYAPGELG
# B1: 2 (dsDNA)
# DNA 1: GGGGGGCCATAGAATTGTACTTCTGTCACCAGTTTTATTTTTTTATTTCCCCC
# DNA 2: GGGGGAAATAAAAAAATAAAACTGGTGACAGAAGTACAATTCTATGGCCCCCC
# B2: 105 (dsDNA)
# DNA 1: GGGGGATTTTTTAAAAAATTAGACTACCACAAATCAACTGTCCCCC
# DNA 2: GGGGGACAGTTGATTTGTGGTAGTCTAATTTTTTAAAAAATCCCCC
# B3: 109 (dsDNA)
# DNA 1: GGGGGCTTTTTTTTTTGTATGTGATTTGAGGCAGAGTCCCCC
# DNA 2: GGGGGACTCTGCCTCAAATCACATACAAAAAAAAAAGCCCCC
# B4: 112 (dsDNA)
# DNA 1: GGGGGTGTGTTCATTTGTTTTTATTTTAGAAGGAGTCCCCC
# DNA 2: GGGGGACTCCTTCTAAAATAAAAACAAATGAACACACCCCC
# B5: 102b (dsDNA)
# DNA 1: GGGGGAAAACAAAACAAAACTGGATTTGGCGATTGTATCCCCC
# DNA 2: GGGGGATACAATCGCCAAATCCAGTTTTGTTTTGTTTTCCCCC
# B6: 114 (dsDNA)
# DNA 1: GGGGGTGATTTTTGCAAAATTTTGTTTTGTTTCTTGAGCCCCC
# DNA 2: GGGGGCTCAAGAAACAAAACAAAATTTTGCAAAAATCACCCCC
# B7: 100 (dsDNA)
# DNA 1: GGGGGCAACCAAAAAAAATGTATTTTACAAAAATCACAACCCCC
# DNA 2: GGGGGTTGTGATTTTTGTAAAATACATTTTTTTTGGTTGCCCCC
# B8: 11 (dsDNA)
# DNA 1: GGGGGGTGGGGTACAAAAATGGCCCTTTGTGATCAACTCCCCC
# DNA 2: GGGGGAGTTGATCACAAAGGGCCATTTTTGTACCCCACCCCCC
# B9: 115 (dsDNA)
# DNA 1: GGGGGCTGGCCAGACAATGACGATATTTTTTTCCTTCACCCCCC
# DNA 2: GGGGGGTGAAGGAAAAAAATATCGTCATTGTCTGGCCAGCCCCC
# B10: 9 (dsDNA)
# DNA 1: GGGGGTCCTGCCACTTGGGTTGCAGTGAGGACAATGAAATGAGCCCCC
# DNA 2: GGGGGCTCATTTCATTGTCCTCACTGCAACCCAAGTGGCAGGACCCCC
# B11: 118 (dsDNA)
# DNA 1: GGGGGGACAAGGGTCAATTTGCTAGACAAAGATCTTCACCCCC
# DNA 2: GGGGGTGAAGATCTTTGTCTAGCAAATTGACCCTTGTCCCCCC
# B12: 104 (dsDNA)
# DNA 1: GGGGGCACAATTTTTATAATATATAATTGTTTCATCAACCCCC
# DNA 2: GGGGGTTGATGAAACAATTATATATTATAAAAATTGTGCCCCC
# B13: 116 (dsDNA)
# DNA 1: GGGGGAAGGCCAGACTAATCTACAAAGTGAGTTCCCCCC
# DNA 2: GGGGGGAACTCACTTTGTAGATTAGTCTGGCCTTCCCCC
# B14: 108 (dsDNA)
# DNA 1: GGGGGCATCTTATCGTTAATATATACGTTTGTTACATATACCCCC
# DNA 2: GGGGGTATATGTAACAAACGTATATATTAACGATAAGATGCCCCC
# B15: 111 (dsDNA)
# DNA 1: GGGGGTTCAACCTTTTGTTGTATCATTTAAAAAACATTCCCCC
# DNA 2: GGGGGAATGTTTTTTAAATGATACAACAAAAGGTTGAACCCCC
# B16: 10 (dsDNA)
# DNA 1: GGGGGACACACACACAAAGATTTATTTATTCATTTAATCCCCC
# DNA 2: GGGGGATTAAATGAATAAATAAATCTTTGTGTGTGTGTCCCCC
# B17: 106 (dsDNA)
# DNA 1: GGGGGGCTTCCCTAGAATTGGAGATACAAAGGGCTCTGCCCCC
# DNA 2: GGGGGCAGAGCCCTTTGTATCTCCAATTCTAGGGAAGCCCCCC
# B18: 110 (dsDNA)
# DNA 1: GGGGGTTTATTTATTTGTTTTATTTCTATTTTTCTTGGTGACCCCC
# DNA 2: GGGGGTCACCAAGAAAAATAGAAATAAAACAAATAAATAAACCCCC
# B19: 101 (dsDNA)
# DNA 1: GGGGGTGCCTCCTTTTGTGAGCTATTTATAATGCTAACCCCC
# DNA 2: GGGGGTTAGCATTATAAATAGCTCACAAAAGGAGGCACCCCC
# B20: 107 (dsDNA)
# DNA 1: GGGGGACTAGTTTTCTATTACTACAAATCTCAACTCCCCC
# DNA 2: GGGGGAGTTGAGATTTGTAGTAATAGAAAACTAGTCCCCC
# B21: 117 (dsDNA)
# DNA 1: GGGGGGAAAAACAAAGATTTAGTATAAACCCCC
# DNA 2: GGGGGTTTATACTAAATCTTTGTTTTTCCCCCC
# B22: 102c (dsDNA)
# DNA 1: GGGGGATTTGGCGATTGTATTATAATTGTCTATCAGTCCCCC
# DNA 2: GGGGGACTGATAGACAATTATAATACAATCGCCAAATCCCCC
# B23: 1 (dsDNA)
# DNA 1: GGGGGAAAATAACCAAAATAAAAAGTGTACAATTCAGTGGCCCCCC
# DNA 2: GGGGGGCCACTGAATTGTACACTTTTTATTTTGGTTATTTTCCCCC
# B24: 113 (dsDNA)
# DNA 1: GGGGGACTAAGTCATTGTTTATTTCCGTGCTGTTCCCCC
# DNA 2: GGGGGAACAGCACGGAAATAAACAATGACTTAGTCCCCC
# B25: 102a (dsDNA)
# DNA 1: GGGGGGGATCCCCACAATACAAAAAAAACAAAAACAAAACCCCCC
# DNA 2: GGGGGGTTTTGTTTTTGTTTTTTTTGTATTGTGGGGATCCCCCCC
# Key:
# Experiment in all cases: EMSA; 10% glycerol, 20 mM HEPES pH 7.8, 45 mM KCl, 10 mM NaCl, 1 mM EDTA, 1 mM DTT, 0.2 ug/uL BSA, 0.1% NP-40, 50 ng poly-dIdC; 20 ng each GST protein; room temperature 30 min (heterodimers 4 C); 6% PAGE 0.25x TBE
# Details in all cases: protein: recombinant; tags: GST (N-terminal, pGEX-6P-1); label: 32P-dCTP fill-in of the 5' (dG)5 overhangs of both strands (Methods; control probes are given with GGG)
# [1] = target: Pax6 DNA-binding domain (BD-Pax6) (Mus musculus (B6), UniProt P63015 190-289)
# In short: (§1)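 DNA binding of transcription factor DNA-binding domains to candidate cis-elements was read from band radioactivity in the expected shift region. The GST-tagged domains came from E. coli BL21 via glutathione-sepharose; probes were annealed oligonucleotides labelled with 32P-dCTP. Each assay used 20 ng protein, 40,000–50,000 cpm probe and 50 ng poly-dIdC for 30 min at room temperature, followed by 6% polyacrylamide electrophoresis in 0.25×TBE at 4°C.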
# [2] = target: T1, Brn2 DNA-binding domain (BD-Brn2)
# In short: as §1
# [3] = target: T2, Oct6 DNA-binding domain (BD-Oct6)
# In short: as §1
# Pax6 DNA-binding domain (BD-Pax6), sequence (P63015 190-289): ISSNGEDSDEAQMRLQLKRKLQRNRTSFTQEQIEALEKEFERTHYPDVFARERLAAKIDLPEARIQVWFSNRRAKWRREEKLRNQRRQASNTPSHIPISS
Binder,binding result [1],binding result [2],binding result [3]
B1,no binding,no binding,no binding
B2,binds,binds,binds
B3,no binding,no binding,no binding
B4,no binding,binds,binds
B5,no binding,no binding,no binding
B6,no binding,no binding,no binding
B7,binds,no binding,binds
B8,no binding,no binding,no binding
B9,no binding,no binding,no binding
B10,no binding,no binding,no binding
B11,no binding,no binding,no binding
B12,binds,binds,binds
B13,no binding,no binding,no binding
B14,binds,binds,binds
B15,no binding,binds,binds
B16,no binding,binds,no binding
B17,no binding,no binding,no binding
B18,no binding,no binding,binds
B19,no binding,binds,binds
B20,no binding,no binding,no binding
B21,no binding,no binding,no binding
B22,binds,binds,binds
B23,no binding,no binding,no binding
B24,no binding,no binding,no binding
B25,no binding,no binding,no binding
